The test concerns the target T1, recombinant biotinylated human BCMA (human, UniProt Q02223 1-54, biotinylated (site not stated); detected with streptavidin-APC).
T1 construct: Staining reagent; also called recombinant biotinylated BCMA/streptavidin-APC conjugate
T1 sequence (looked up): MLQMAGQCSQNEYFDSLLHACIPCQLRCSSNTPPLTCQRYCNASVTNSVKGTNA
In words: flow cytometry; edited T cells carrying the CAR stained with recombinant biotinylated human BCMA and streptavidin-APC. An excerpt: Flowcytometry was used to verify the editing for TRAC, β2M and the insertion and expression of anti-BCMA CAR. Briefly, about one week post electroporation, cells were stained with anti-human TCR, anti-human β2M and recombinant biotinylated human BCMA/streptavidin-APC to assess the levels of editing for TRAC and β2M, and insertion of the nucleotide sequence encoding anti-BCMA CAR.
TRAC−/β2M−, TRAC−/β2M−/Reg-1−, TRAC−/β2M−/TGFBRII− and TRAC−/β2M−/Reg-1−/TGFBRII− anti-BCMA CAR+ T-cells show consistent rates of TCR and β2M disruptions at >90% and >60% rates, respectively as determined by flow cytometry (FIGS. 23A and 23B). Anti-BCMA CAR expression was measured flow cytometrically by determining the percentage of cells that bound recombinant biotinylated BCMA/streptavidin-APC conjugate. All the conditions including TRAC−/β2M−, TRAC−/β2M−/Reg-1−, TRAC−/β2M−/TGFBRII− and TRAC−/β2M−/Reg-1−/TGFBRII− anti-BCMA CAR+ T-cells show consistent rates of CAR insertion (>70%), while the unedited RNP− T-cells have no detectable staining for anti-BCMA CAR (FIG. 23C).
(In general: Flow cytometry measures light scatter and fluorescence of single cells or particles in a stream.)

B1: anti-BCMA CAR (BCMA CAR amino acid sequence) (other)
chain: QVQLVQSGAELKKPGASVKVSCKASGNTLTNYVIHWVRQAPGQRLEWMGYILPYNDLTKYSQKFQGRVTITRDKSASTAYMELSSLRSEDTAVYYCTRWDWDGFFDPWGQGTTVTVSSGGGGSGGGGSGGGGSEIVMTQSPATLSVSPGERASISCRASQSLVHSNGNTHLHWYQQRPGQAPRLLIYSVSNRFSEVPARFSGSGSGTDFTLTISSVESEDFAVYYCSQTSHIPYTFGGGTKLEIKSAAAFVPVFLPAKPTTTPAPRPPTPAPTIASQPLSLRPEACRPAAGGAVHTRGLDFACDIYIWAPLAGTCGVLLLSLVITLYCNHRNRKRGRKKLLYIFKQPFMRPVQTTQEEDGCSCRFPEEEEGGCELRVKFSRSADAPAYQQGQNQLYNELNLGRREEYDVLDKRRGRDPEMGGKPRRKNPQEGLYNELQKDKMAEAYSEIGMKGERRRGKGHDGLYQGLSTATKDTYDALHMQALPPR
notes: also called anti-BCMA chimeric antigen receptor
Take B1: the binding result is given as “binds”.

For the origin of these results see patent publication US20220090012A1 (CRISPR THERAPEUTICS, published 2022).
